These results are taken from paper PMC12349009 (2025).

Test [1] deals with T1, soluble recombinant NKp65 ectodomain with threonine at position 131 (NKp65-Thr131) (human, UniProt D3W0D1 63-207, substitution of proline by threonine at amino acid position 131, biotin on the N-terminal BirA tag (enzymatic, BirA ligase)).
T1 sequence: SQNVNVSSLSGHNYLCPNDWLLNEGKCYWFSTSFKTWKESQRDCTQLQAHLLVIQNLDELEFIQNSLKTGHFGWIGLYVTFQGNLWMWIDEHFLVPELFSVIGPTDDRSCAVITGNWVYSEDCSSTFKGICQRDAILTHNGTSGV
The experiment in a line: SPR; KD1 of bivalent fit, multi-cycle kinetics.

Test [2] concerns the target T2, soluble recombinant NKp65 ectodomain with proline at position 131 (NKp65-Pro131) (human, UniProt D3W0D1 63-207, biotin on the N-terminal BirA tag (enzymatic, BirA ligase)).
T2 chain: T1 sequence with T69P
The experiment in a line: SPR; KD1 of bivalent fit, multi-cycle kinetics. Background: In SPR one partner is held on a chip, and binding of the other changes the refractive index at the surface.

Test [3] concerns the target soluble recombinant NKp65 ectodomain with proline at position 131 (NKp65-Pro131) (human) (UniProt D3W0D1). Nature of the test: SPR; mean of KD1 (bivalent model) from at least three measurements, protein produced independently twice, 2 different chip lots; biotinylated NKp65 immobilised on a streptavidin chip, sKACL as analyte; which runs were pooled is not told.
Test [4] has as its target soluble recombinant NKp65 ectodomain with threonine at position 131 (NKp65-Thr131) (human) (UniProt D3W0D1). The test is described as above.
Test [5] has as its target soluble recombinant NKp65 ectodomain with proline at position 131 (NKp65-Pro131) (human) (UniProt D3W0D1). The experiment in a line: SPR; single-cycle kinetics, Biacore X100; 73.4 ± 12.4 RU biotinylated NKp65 immobilised on a streptavidin chip (Sensor Chip SA), pulsed 120 s with sKACL 0.247-20 nM, flow 30 µl/min, final dissociation 600 s; bivalent binding model.
For test [6], the target named is soluble recombinant NKp65 ectodomain with threonine at position 131 (NKp65-Thr131) (human) (UniProt D3W0D1). Described as above.

Residue numbers refer to the chain shown, from its start.

B1: recombinant KACL ectodomain (sKACL) (ligand)
chain: WSKHAKPVACSGDWLGVRDKCFYFSDDTRNWTASKIFCSLQKAELAQIDTQEDMEFLKRYAGTDMHWIGLSRKQGDSWKWTNGTTFNGWFEIIGNGSFAFLSADGVHSSRGFIDIKWICSKPKYFL
B1: the Kd in test [1] came out at 57.1 nM; in test [2] it was 13.6 nM; in test [5], 2.6 nM; in test [6], 20.3 nM. The KD1 (bivalent fit) in test [3] came out at 8.2 nM; in test [4], 35 nM.
